# Laboratory results reported in US6649409.
# Values joined by “and” are separate entries in the source; they are usually repeats but may differ in a detail not shown here. Equal entries are not always repeated.
# Legend:
# [1] = target: HIV-1 BX08 envelope glycoprotein gp160 expressed from the synthetic gene syn.gp160BX08 (HIV-1 BX08); test: flow cytometry (FACS) on transfected 293 cells, mean of duplicates
# [2] = target: HIV-1 BX08 envelope glycoprotein gp160 expressed from the wild type gene wt.gp160BX08 (HIV-1 BX08); test: as above
# [3] = target: HIV-1 BX08 envelope glycoprotein gp160 expressed from the synthetic gene syn.gp160BX08 (HIV-1 BX08); test: flow cytometry (FACS) on transfected 293 cells, PE-labelled rat anti-mouse IgG1 as secondary
# [4] = target: HIV-1 BX08 envelope glycoprotein gp160 expressed from the wild type gene wt.gp160BX08 (HIV-1 BX08); test: as above
substance,measurement,setting,value
"mouse monoclonal IgG antibody to HIV gp120 (NEA-9301, NEN Life Science Products Inc., Boston)",mean % of cells stained,[1],48%
same,mean % of cells stained,[2],11%
same,% of cells stained (C: Primary Ab and secondary Ab added),[3],36.9% and 58.4%
same,"% of cells stained, C-A (less control without primary antibody)",[3],34.3% and 55.6%
same,"% of cells stained, C-B (less autofluorescence control)",[3],34.1% and 56.3%
same,% of cells stained (C: Primary Ab and secondary Ab added),[4],14.4% and 7.51%
same,"% of cells stained, C-A (less control without primary antibody)",[4],11.4% and 5.56%
same,"% of cells stained, C-B (less autofluorescence control)",[4],13% and 5.99%
